In patent US20130079278A1 (Novo Nordisk, published 2013):
*1 amine or outer side, *2 acyl side, *3 side chain or, on linkers, in order; H or OH if unused. Where no end group is shown, it is not given here. Side-chain parts run from the residue outwards. The star is where a group is joined. C18 diacid = O=C(O)CCCCCCCCCCCCCCCCC(=O)*; C16 diacid = O=C(O)CCCCCCCCCCCCCCC(=O)*; γGlu = O=C(O)[C@H](CCC(=O)[*:2])N[*:1]; AEEA = NCCOCCOCC(=O)O

Molecular target: glucagon receptor (human, UniProt P47871 26-477)
Assay: cell-based or functional assay

Chain of glucagon receptor (P47871 26-477): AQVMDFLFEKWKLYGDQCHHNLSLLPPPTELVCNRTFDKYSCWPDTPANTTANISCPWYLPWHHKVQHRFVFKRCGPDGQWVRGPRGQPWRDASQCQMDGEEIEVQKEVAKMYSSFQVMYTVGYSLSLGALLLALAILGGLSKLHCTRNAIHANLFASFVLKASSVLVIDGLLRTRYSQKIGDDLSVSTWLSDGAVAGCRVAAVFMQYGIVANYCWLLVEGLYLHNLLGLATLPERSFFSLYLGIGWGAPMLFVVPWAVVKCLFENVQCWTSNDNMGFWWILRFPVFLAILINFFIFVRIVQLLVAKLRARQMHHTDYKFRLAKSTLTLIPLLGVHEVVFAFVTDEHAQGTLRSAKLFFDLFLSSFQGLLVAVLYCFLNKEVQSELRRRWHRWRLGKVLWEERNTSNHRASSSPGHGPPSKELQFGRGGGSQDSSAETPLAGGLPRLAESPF

Row | Binder | Assay (I) Glucagon [EC50]
1 | HSQGTFTSDYSKYLDLRRAQDFVK([γGlu-γGlu-AEEA-AEEA-γGlu-C16 diacid])WLLST | 0.039 nM
2 | HSQGTFTSDYSKYLDTRRAQDFVK([γGlu-γGlu-AEEA-AEEA-γGlu-C16 diacid])WLLST | 0.017 nM
3 | HSQGTFTSDYSRYLDLRRAQDFVK([γGlu-γGlu-γGlu-C16 diacid])WLLST | 0.027 nM
4 | HSQGTFTSDYSKYLDVRRAQDFVK([γGlu-γGlu-γGlu-γGlu-C18 diacid])WLLST | 0.134 nM
5 | HSQGTFTSDYSRYLDLRRAQDFVK([γGlu-γGlu-AEEA-AEEA-γGlu-C16 diacid])WLLGT | 0.09 nM
6 | HSQGTFTSDYSRYLDLRRAQDFVK([γGlu-γGlu-AEEA-AEEA-γGlu-C18 diacid])WLLGT | 0.47 nM
7 | HSQGTFTSDYSRYLDLRRAQDFVK([γGlu-γGlu-AEEA-AEEA-γGlu-C18 diacid])WLLAT | 0.253 nM
8 | HSQGTFTSDYSKYLDIRRAQDFVK([γGlu-γGlu-γGlu-γGlu-C18 diacid])WLLST-NH2 (N-terminus assumed; SMILES CC[C@H](C)[C@H](NC(=O)[C@H](CC(=O)O)NC(=O)[C@H](CC(C)C)NC(=O)[C@H](Cc1ccc(O)cc1)NC(=O)[C@H](CCCCN)NC(=O)[C@H](CO)NC(=O)[C@H](Cc1ccc(O)cc1)NC(=O)[C@H](CC(=O)O)NC(=O)[C@H](CO)NC(=O)[C@@H](NC(=O)[C@H](Cc1ccccc1)NC(=O)[C@@H](NC(=O)CNC(=O)[C@H](CCC(N)=O)NC(=O)[C@H](CO)NC(=O)[C@@H](N)Cc1c[nH]cn1)[C@@H](C)O)[C@@H](C)O)C(=O)N[C@@H](CCCNC(=N)N)C(=O)N[C@@H](CCCNC(=N)N)C(=O)N[C@@H](C)C(=O)N[C@@H](CCC(N)=O)C(=O)N[C@@H](CC(=O)O)C(=O)N[C@@H](Cc1ccccc1)C(=O)N[C@H](C(=O)N[C@@H](CCCCNC(=O)CC[C@H](NC(=O)CC[C@H](NC(=O)CC[C@H](NC(=O)CC[C@H](NC(=O)CCCCCCCCCCCCCCCCC(=O)O)C(=O)O)C(=O)O)C(=O)O)C(=O)O)C(=O)N[C@@H](Cc1c[nH]c2ccccc12)C(=O)N[C@@H](CC(C)C)C(=O)N[C@@H](CC(C)C)C(=O)N[C@@H](CO)C(=O)N[C@H](C(N)=O)[C@@H](C)O)C(C)C) | 0.402 nM
9 | HSHGTFTSDYSKYLETRRAQDFVK([γGlu-γGlu-AEEA-AEEA-γGlu-C18 diacid])WLLNT | 0.036 nM
10 | HSQGTFTSDYSKYLDERRAQDFVK([γGlu-γGlu-AEEA-AEEA-γGlu-C16 diacid])WLLST | 0.017 nM
11 | HSQGTFTSDYSRYLDARRAQDFVK([γGlu-γGlu-γGlu-C18 diacid])WLLST | 0.066 nM
12 | HSQGTFTSDYSKYLDVRRAQDFVK([γGlu-γGlu-γGlu-γGlu-C18 diacid])WLLST-NH2 (N-terminus assumed; SMILES CC(C)C[C@H](NC(=O)[C@H](Cc1c[nH]c2ccccc12)NC(=O)[C@H](CCCCNC(=O)CC[C@H](NC(=O)CC[C@H](NC(=O)CC[C@H](NC(=O)CC[C@H](NC(=O)CCCCCCCCCCCCCCCCC(=O)O)C(=O)O)C(=O)O)C(=O)O)C(=O)O)NC(=O)[C@@H](NC(=O)[C@H](Cc1ccccc1)NC(=O)[C@H](CC(=O)O)NC(=O)[C@H](CCC(N)=O)NC(=O)[C@H](C)NC(=O)[C@H](CCCNC(=N)N)NC(=O)[C@H](CCCNC(=N)N)NC(=O)[C@@H](NC(=O)[C@H](CC(=O)O)NC(=O)[C@H](CC(C)C)NC(=O)[C@H](Cc1ccc(O)cc1)NC(=O)[C@H](CCCCN)NC(=O)[C@H](CO)NC(=O)[C@H](Cc1ccc(O)cc1)NC(=O)[C@H](CC(=O)O)NC(=O)[C@H](CO)NC(=O)[C@@H](NC(=O)[C@H](Cc1ccccc1)NC(=O)[C@@H](NC(=O)CNC(=O)[C@H](CCC(N)=O)NC(=O)[C@H](CO)NC(=O)[C@@H](N)Cc1c[nH]cn1)[C@@H](C)O)[C@@H](C)O)C(C)C)C(C)C)C(=O)N[C@@H](CC(C)C)C(=O)N[C@@H](CO)C(=O)N[C@H](C(N)=O)[C@@H](C)O) | 0.268 nM
13 | HSQGTFTSDYSRYLDTRRAQDFVK([γGlu-γGlu-AEEA-AEEA-γGlu-C16 diacid])WLLST | 0.025 nM
14 | HSQGTFTSDYSRYLDERRAQDFVK([γGlu-γGlu-AEEA-AEEA-γGlu-C16 diacid])WLLST | 0.029 nM
15 | HSQGTFTSDYSKYLDVRRAQDFVK([γGlu-γGlu-AEEA-AEEA-γGlu-C16 diacid])WLLST | 0.009 nM
16 | HSQGTFTSDYSRYLDARRAQDFVK([γGlu-γGlu-AEEA-AEEA-γGlu-C16 diacid])WLLST | 0.022 nM
17 | HSQGTFTSDYSRYLDLRRAQDFVK([γGlu-γGlu-γGlu-γGlu-C18 diacid])WLLST | 0.343 nM
18 | HSQGTFTSDYSKYLDARRAQDFVK([γGlu-γGlu-AEEA-AEEA-γGlu-C16 diacid])WLLST | 0.016 nM
19 | HSQGTFTSDYSRYLDVRRAQDFVK([γGlu-γGlu-AEEA-AEEA-γGlu-C16 diacid])WLLST | 0.026 nM
20 | HSQGTFTSDYSKYLDLRRAQDFVK([γGlu-γGlu-γGlu-γGlu-C18 diacid])WLLST-NH2 (N-terminus assumed; SMILES CC(C)C[C@H](NC(=O)[C@H](CC(=O)O)NC(=O)[C@H](CC(C)C)NC(=O)[C@H](Cc1ccc(O)cc1)NC(=O)[C@H](CCCCN)NC(=O)[C@H](CO)NC(=O)[C@H](Cc1ccc(O)cc1)NC(=O)[C@H](CC(=O)O)NC(=O)[C@H](CO)NC(=O)[C@@H](NC(=O)[C@H](Cc1ccccc1)NC(=O)[C@@H](NC(=O)CNC(=O)[C@H](CCC(N)=O)NC(=O)[C@H](CO)NC(=O)[C@@H](N)Cc1c[nH]cn1)[C@@H](C)O)[C@@H](C)O)C(=O)N[C@@H](CCCNC(=N)N)C(=O)N[C@@H](CCCNC(=N)N)C(=O)N[C@@H](C)C(=O)N[C@@H](CCC(N)=O)C(=O)N[C@@H](CC(=O)O)C(=O)N[C@@H](Cc1ccccc1)C(=O)N[C@H](C(=O)N[C@@H](CCCCNC(=O)CC[C@H](NC(=O)CC[C@H](NC(=O)CC[C@H](NC(=O)CC[C@H](NC(=O)CCCCCCCCCCCCCCCCC(=O)O)C(=O)O)C(=O)O)C(=O)O)C(=O)O)C(=O)N[C@@H](Cc1c[nH]c2ccccc12)C(=O)N[C@@H](CC(C)C)C(=O)N[C@@H](CC(C)C)C(=O)N[C@@H](CO)C(=O)N[C@H](C(N)=O)[C@@H](C)O)C(C)C) | 0.812 nM
21 | HSQGTFTSDYSKYLDIRRAQDFVK([γGlu-γGlu-γGlu-γGlu-C18 diacid])WLLST | 0.189 nM
22 | HSQGTFTSDYSKYLDLRRAQDFVK([γGlu-γGlu-γGlu-γGlu-C18 diacid])WLLST | 0.126 nM
23 | HSQGTFTSDYSKYLDIRRAQDFVK([γGlu-γGlu-AEEA-AEEA-γGlu-C18 diacid])WLLNT | 0.081 nM
24 | HSQGTFTSDYSRYLDLRRAQDFVK([γGlu-γGlu-AEEA-AEEA-γGlu-C16 diacid])WLLAT | 0.064 nM
25 | HSQGTFTSDYSRYLDARRAQDFVK([γGlu-γGlu-γGlu-γGlu-C18 diacid])WLLST | 0.062 nM
